# Source: PMC10562255, “APOBEC3B regulates R-loops and promotes transcription-associated mutagenesis in cancer”
# B1: short 15-mer ssDNA (A3B DNA EMSA) (ssDNA)
# DNA: ATTAGTCATATGGAT
# B2: short 15-mer ssRNA (A3B RNA EMSA) (ssRNA)
# RNA: AUUAGUCAUAUGGAU
# Target: APOBEC3B (A3B) WT (human, UniProt Q9UH17 1-382)
# Test: EMSA with unlabeled self-competitor; binds ssDNA and ssRNA equally strongly; Competition EMSA: 25 mM HEPES pH 7.4, 50 mM NaCl, 0.4 U/ul RNase inhibitor, room temperature, 5 min binding plus 10 min with competitor; R-loop substrate EMSA:
# Details: protein: recombinant; tags: C-terminal mycHis; label: 5' IRDye800CW
# Sequence of APOBEC3B (A3B) WT (Q9UH17 whole entry): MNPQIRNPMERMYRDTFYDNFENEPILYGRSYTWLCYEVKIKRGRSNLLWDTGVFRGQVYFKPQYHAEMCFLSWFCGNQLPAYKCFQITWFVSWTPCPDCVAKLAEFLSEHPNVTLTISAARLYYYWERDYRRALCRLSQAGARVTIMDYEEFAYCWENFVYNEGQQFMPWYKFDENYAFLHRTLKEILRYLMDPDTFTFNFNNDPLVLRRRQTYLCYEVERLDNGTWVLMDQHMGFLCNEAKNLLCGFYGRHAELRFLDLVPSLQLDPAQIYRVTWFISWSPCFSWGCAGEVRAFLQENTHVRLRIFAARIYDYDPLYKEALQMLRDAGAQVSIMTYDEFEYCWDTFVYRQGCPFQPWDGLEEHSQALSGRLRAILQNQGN
row,Binder,binding result
1,B1,binds
2,B2,binds
